Assay results as given in US20150152150A1.

Molecular target: human Y1 receptor (human) (UniProt P25929)
Assay: cell-based or functional assay

human Y1 receptor (human), sequence (P25929 whole entry): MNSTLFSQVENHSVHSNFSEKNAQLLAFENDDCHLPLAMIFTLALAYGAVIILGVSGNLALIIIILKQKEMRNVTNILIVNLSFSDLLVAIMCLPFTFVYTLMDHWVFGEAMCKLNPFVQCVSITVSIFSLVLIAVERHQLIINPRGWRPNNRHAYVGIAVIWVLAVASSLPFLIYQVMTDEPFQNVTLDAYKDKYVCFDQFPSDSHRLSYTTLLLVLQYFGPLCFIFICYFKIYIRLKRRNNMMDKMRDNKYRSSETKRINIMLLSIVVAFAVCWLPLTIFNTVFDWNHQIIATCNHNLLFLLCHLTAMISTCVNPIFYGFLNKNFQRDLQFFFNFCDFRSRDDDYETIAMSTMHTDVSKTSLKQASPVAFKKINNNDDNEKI

Substance	EC50, Actone functional potency assay [µM]
4-N{alpha}-(3-Methylbutanoyl)-7-N{Epsilon}-[2-[2-[2-[[2-[2-[2-[[(4S)-4-carboxy-4-(15-carboxypentadecanoylamino)butanoyl]amino]ethoxy]ethoxy]acetyl]amino]-ethoxy]ethoxy]acetyl]-[Arg4,Lys7,Gln18,Trp30,NMeArg35]hPYY(4-36) (peptide)	> 1
4-N{alpha}-(3-Methylbutanoyl)-7-N{Epsilon}-[4-[3-[2-[2-[3-[[4-[3-[2-[2-[3-[[(4S)-4-carboxy-4-(16-sulfohexadecanoylamino)butanoyl]amino]propoxy]ethoxy]-ethoxy]propylamino]-4-oxobutanoyl]amino]propoxy]ethoxy]ethoxy]propylamino]-4-oxobutanoyl]-[Arg4,Lys7,Gln18,Trp30,NMeArg35]hPYY(4-36) (peptide)	> 1
4-N{alpha}-(3-methyl-pentanoyl)-7-N{Epsilon}-[2-[2-[2-[[2-[2-[2-[[(4S)-4-carboxy-4-(16-sulfohexadecanoylamino)butanoyl]amino]ethoxy]ethoxy]acetyl]amino]-ethoxy]ethoxy]acetyl]-[Lys7,Gln18,Trp30,NMeArg35]hPYY(4-36) (peptide)	> 1
4-N{alpha}-(3-Methylbutanoyl)-7-N{Epsilon}-[2-[2-[2-[[2-[2-[2-[[(4S)-4-carboxy-4-(14-sulfotetradecanoylamino)butanoyl]amino]ethoxy]ethoxy]acetyl]]amino]ethoxy]-ethoxy]acetyl]-[Arg4,Lys7,Gln18,Trp30,NMeArg35]hPYY(4-36) (peptide)	> 1
4-N{alpha}-(hexanoyl)-7-N{Epsilon}-[2-[2-[2-[[2-[2-[2-[[(4S)-4-carboxy-4-(16-sulfohexadecanoylamino)butanoyl]amino]ethoxy]ethoxy]acetyl]amino]ethoxy]-ethoxy]acetyl]-[Arg4,Lys7,Gln18,Trp30,NMeArg35]hPYY(4-36) (peptide)	> 1
7-N{Epsilon}-[2-[2-[2-[[2-[2-[2-[[(4S)-4-carboxy-4-(16-sulfohexadecanoylamino)-butanoyl]amino]ethoxy]ethoxy]acetyl]amino]ethoxy]ethoxy]acetyl]-[Lys7,Gln18, Trp30,NMeArg35]hPYY(3-36) (peptide)	> 1
4-N{alpha}-(3-Methylbutanoyl)-7-N{Epsilon}-[4-[3-[2-[2-[3-[[(4S)-4-carboxy-4-(16-sulfohexadecanoylamino)butanoyl]amino]propoxy]ethoxy]ethoxy]propylamino]-4-oxobutanoyl]-[Arg4,Lys7,Gln18,Trp30,NMeArg35]hPYY(4-36) (peptide)	> 1
4-N{alpha}-(3-Methylbutanoyl)-7-N{Epsilon}-[(2S)-2-amino-6-[[2-[2-[2-[[(4S)-4-carboxy-4-(16-sulfohexadecanoylamino)butanoyl]amino]ethoxy]ethoxy]acetyl]-amino]hexanoyl]]-[Arg4,Lys7,Gln18,Trp30,NMeArg35]hPYY(4-36) (peptide)	> 1
4-N{alpha}-(3-Methylbutanoyl)-7-N{Epsilon}-[2-[2-[2-[[2-[2-[2-[[2-[2-[2-[[(4S)-4-carboxy-4-(16-sulfohexadecanoylamino)butanoyl]amino]ethoxy]ethoxy]acetyl]-amino]ethoxy]ethoxy]acetyl]amino]ethoxy]ethoxy]acetyl]-[Arg4,Lys7,Gln18,Trp30,NMeArg35]hPYY(4-36) (peptide)	> 1
4-N{alpha}-(3-Methylbutanoyl)-7-N{Epsilon}-[2-[2-[2-[[2-[2-[2-[[(4S)-4-carboxy-4-(17-carboxyheptadecanoylamino)butanoyl]amino]ethoxy]ethoxy]acetyl]amino]ethoxy]-ethoxy]acetyl]-[Arg4,Lys7,Gln18,Trp30,NMeArg35]hPYY(4-36) (peptide)	> 1
4-N{alpha}-(3-Methylbutanoyl)-7-N{Epsilon}-[2-[2-[2-[[2-[2-[2-[[(4S)-4-carboxy-4-(14-carboxy-tetracanoylamino)butanoyl]amino]ethoxy]ethoxy]acetyl]]amino]ethoxy]-ethoxy]acetyl]-[Arg4,Lys7,Gln18,Trp30,NMeArg35]hPYY(4-36) (peptide)	> 1
4-N{alpha}-(3-Methylbutanoyl)-7-N{Epsilon}-[2-[2-[2-[[2-[2-[2-[[(4S)-4-carboxy-4-(16-carboxy-hexadecanoylamino)butanoyl]amino]ethoxy]ethoxy]acetyl]]amino]ethoxy]-ethoxy]acetyl]-[Arg4,Lys7,Gln18,Trp30,NMeArg35]hPYY(4-36) (peptide)	> 1
4-N{alpha}-(3-Methylbutanoyl)-7-N{Epsilon}-[2-[2-[2-[[2-[2-[2-[[(4S)-4-carboxy-4-(16-sulfohexadecanoylamino)-butanoyl]amino]ethoxy]ethoxy]acetyl]amino]ethoxy]-ethoxy]acetyl]-[Arg4,Lys7,Gln18,Trp30,NMeArg35]hPYY(4-36) (peptide)	> 1
4-N{alpha}-(3-Methylbutanoyl)-7-N{Epsilon}-[2-[2-[2-[[2-[2-[2-[[(4S)-4-carboxy-4-(16-sulfohexadecanoylamino)butanoyl]amino]ethoxy]ethoxy]acetyl]amino]-ethoxy]ethoxy]acetyl]-[Lys7,Gln18,Trp30,NMeArg35]hPYY(4-36) (peptide)	> 1
7-N{Epsilon}-[2-[2-[2-[[2-[2-[2-[[2-[2-[2-[[2-[2-[2-[4-[16-(1H-tetrazol-5-yl)-hexadecanoylsulfamoyl]butanoylamino]ethoxy]ethoxy]acetyl]amino]ethoxy]-ethoxy]acetyl]amino]ethoxy]ethoxy]acetyl]amino]ethoxy]ethoxy]acetyl]-[Lys7,Gln18,Trp30,NMeArg35]hPYY(3-36) (peptide)	> 1
7-N{Epsilon}-[2-[2-[2-[[2-[2-[2-[[(4S)-4-carboxy-4-(16-sulfohexadecanoylamino)-butanoyl]amino]ethoxy]ethoxy]acetyl]amino]ethoxy]ethoxy]acetyl]-[Arg4,Lys7,Gln18, Trp30,NMeArg35]hPYY(3-36) (peptide)	> 1

Molecular target: human Y4 receptor (human) (UniProt P50391)
Assay: cell-based or functional assay

human Y4 receptor (human), sequence (P50391 whole entry): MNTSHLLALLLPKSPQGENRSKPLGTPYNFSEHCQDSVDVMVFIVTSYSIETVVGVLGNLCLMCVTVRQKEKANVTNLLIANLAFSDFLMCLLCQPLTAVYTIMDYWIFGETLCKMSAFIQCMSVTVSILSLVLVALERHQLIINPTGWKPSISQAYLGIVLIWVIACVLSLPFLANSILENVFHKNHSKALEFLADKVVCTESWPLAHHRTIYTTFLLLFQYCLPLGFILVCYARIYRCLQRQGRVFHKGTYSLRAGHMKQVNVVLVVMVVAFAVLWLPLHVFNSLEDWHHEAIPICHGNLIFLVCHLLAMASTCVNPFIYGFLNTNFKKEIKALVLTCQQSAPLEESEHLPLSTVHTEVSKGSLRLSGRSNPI

Substance	EC50, Actone functional potency assay [µM]
4-N{alpha}-(3-Methylbutanoyl)-7-N{Epsilon}-[2-[2-[2-[[2-[2-[2-[[(4S)-4-carboxy-4-(16-sulfohexadecanoylamino)butanoyl]amino]ethoxy]ethoxy]acetyl]amino]-ethoxy]ethoxy]acetyl]-[Lys7,Gln18,Trp30,NMeArg35]hPYY(4-36) (peptide)	> 1
4-N{alpha}-(3-Methylbutanoyl)-7-N{Epsilon}-[2-[2-[2-[[2-[2-[2-[[(4S)-4-carboxy-4-(16-sulfohexadecanoylamino)-butanoyl]amino]ethoxy]ethoxy]acetyl]amino]ethoxy]-ethoxy]acetyl]-[Arg4,Lys7,D-isoAsp11,Gln18,Trp30,NMeArg35]hPYY(4-36) (peptide)	> 1
4-N{alpha}-(3-Methylbutanoyl)-7-N{Epsilon}-[2-[2-[2-[[2-[2-[2-[[(4S)-4-carboxy-4-[[(4S)-4-carboxy-4-(16-sulfohexadecanoylamino)butanoyl]amino]butanoyl]amino]-ethoxy]ethoxy]acetyl]amino]ethoxy]ethoxy]acetyl]-[Lys7,Gln18,Trp30,NMeArg35] hPYY(4-36) (peptide)	> 1
